This is an account of results in publication PMC13016609, “UV irradiation alters TFAM binding specificity and compaction of DNA”.

Data set [1] concerns the target T1, TFAM (no MTS) (Homo sapiens, UniProt Q00059 43-246).
T1 sequence: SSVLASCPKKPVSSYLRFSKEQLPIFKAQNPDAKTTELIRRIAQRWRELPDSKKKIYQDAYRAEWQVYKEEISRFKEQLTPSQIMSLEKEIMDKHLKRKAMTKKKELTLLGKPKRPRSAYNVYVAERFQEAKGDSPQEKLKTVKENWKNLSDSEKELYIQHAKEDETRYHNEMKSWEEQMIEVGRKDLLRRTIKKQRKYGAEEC
The data set is described as follows: fluorescence anisotropy; Hill n 3.09±0.11; FP: 25 mM HEPES, 10 mM Mg(OAc)2, 25 mM NaOAc, 75 mM KOAc, pH 7.5, 1 nM DNA, TFAM 0-15 nM diluted on ice (read temperature not stated); AFM oligos: on ice, 2 min. Conditions: protein: recombinant; label: 5' 6-FAM on strand 1; blunt. In general terms: Fluorescence polarisation rises when a labelled molecule tumbles more slowly, as on binding a larger partner.

Data set [2] has as its target T1, TFAM (no MTS). As to the kind of experiment: fluorescence anisotropy; +UVC; Hill n 4.38±0.33; FP: 25 mM HEPES, 10 mM Mg(OAc)2, 25 mM NaOAc, 75 mM KOAc, pH 7.5, 1 nM DNA, TFAM 0-15 nM diluted on ice (read temperature not stated); AFM oligos: on ice, 2 min. The settings on record: protein: recombinant; label: 5' 6-FAM on strand 1; blunt.
The target in data set [3] is T1, TFAM (no MTS). The data set is described as follows: fluorescence anisotropy; Hill n 3.85±0.49; FP: 25 mM HEPES, 10 mM Mg(OAc)2, 25 mM NaOAc, 75 mM KOAc, pH 7.5, 1 nM DNA, TFAM 0-15 nM diluted on ice (read temperature not stated); AFM oligos: on ice, 2 min. Conditions: protein: recombinant; label: 5' 6-FAM on strand 1 (FP); blunt.
For data set [4], the target named is T1, TFAM (no MTS). As to the kind of experiment: fluorescence anisotropy; +UVC; Hill n 2.94±0.40; FP: 25 mM HEPES, 10 mM Mg(OAc)2, 25 mM NaOAc, 75 mM KOAc, pH 7.5, 1 nM DNA, TFAM 0-15 nM diluted on ice (read temperature not stated); AFM oligos: on ice, 2 min. Conditions: protein: recombinant; label: 5' 6-FAM on strand 1; blunt.
The target in data set [5] is T1, TFAM (no MTS). As to the kind of experiment: fluorescence anisotropy; Hill n 2.84±0.14; FP: 25 mM HEPES, 10 mM Mg(OAc)2, 25 mM NaOAc, 75 mM KOAc, pH 7.5, 1 nM DNA, TFAM 0-15 nM diluted on ice (read temperature not stated); AFM oligos: on ice, 2 min. Conditions: protein: recombinant; label: 5' 6-FAM on strand 1; blunt.
Data set [6] has as its target T1, TFAM (no MTS). The data set is described as follows: fluorescence anisotropy; +UVC; Hill n 2.27±0.26; FP: 25 mM HEPES, 10 mM Mg(OAc)2, 25 mM NaOAc, 75 mM KOAc, pH 7.5, 1 nM DNA, TFAM 0-15 nM diluted on ice (read temperature not stated); AFM oligos: on ice, 2 min. Conditions: protein: recombinant; label: 5' 6-FAM on strand 1; blunt.
Data set [7] addresses T1, TFAM (no MTS). The data set is described as follows: fluorescence anisotropy; Hill n 2.64±0.22; FP: 25 mM HEPES, 10 mM Mg(OAc)2, 25 mM NaOAc, 75 mM KOAc, pH 7.5, 1 nM DNA, TFAM 0-15 nM diluted on ice (read temperature not stated); AFM oligos: on ice, 2 min. Conditions: protein: recombinant; label: 5' 6-FAM on strand 1; blunt.
Data set [8] deals with T1, TFAM (no MTS). As to the kind of experiment: fluorescence anisotropy; +UVC; Hill n 2.61±0.25; FP: 25 mM HEPES, 10 mM Mg(OAc)2, 25 mM NaOAc, 75 mM KOAc, pH 7.5, 1 nM DNA, TFAM 0-15 nM diluted on ice (read temperature not stated); AFM oligos: on ice, 2 min. Conditions: protein: recombinant; label: 5' 6-FAM on strand 1; blunt.
The target of data set [9] is T1, TFAM (no MTS). As to the kind of experiment: fluorescence anisotropy; Hill n 2.63±0.22; FP: 25 mM HEPES, 10 mM Mg(OAc)2, 25 mM NaOAc, 75 mM KOAc, pH 7.5, 1 nM DNA, TFAM 0-15 nM diluted on ice (read temperature not stated); AFM oligos: on ice, 2 min. Conditions: protein: recombinant; label: 5' 6-FAM on strand 1; blunt.
For data set [10], the target named is T1, TFAM (no MTS). As to the kind of experiment: fluorescence anisotropy; Hill n 3.04±0.19; FP: 25 mM HEPES, 10 mM Mg(OAc)2, 25 mM NaOAc, 75 mM KOAc, pH 7.5, 1 nM DNA, TFAM 0-15 nM diluted on ice (read temperature not stated); AFM oligos: on ice, 2 min. The settings on record: protein: recombinant; label: 5' 6-FAM on strand 1; blunt.
The target in data set [11] is T1, TFAM (no MTS). As to the kind of experiment: fluorescence anisotropy; +UVC; Hill n 1.90±0.12; FP: 25 mM HEPES, 10 mM Mg(OAc)2, 25 mM NaOAc, 75 mM KOAc, pH 7.5, 1 nM DNA, TFAM 0-15 nM diluted on ice (read temperature not stated); AFM oligos: on ice, 2 min. Conditions: protein: recombinant; label: 5' 6-FAM on strand 1; blunt.
Data set [12] has as its target T1, TFAM (no MTS). As to the kind of experiment: fluorescence anisotropy; Hill n 2.77±0.17; FP: 25 mM HEPES, 10 mM Mg(OAc)2, 25 mM NaOAc, 75 mM KOAc, pH 7.5, 1 nM DNA, TFAM 0-15 nM diluted on ice (read temperature not stated); AFM oligos: on ice, 2 min. Conditions: protein: recombinant; label: 5' 6-FAM on strand 1; blunt.
The target in data set [13] is T1, TFAM (no MTS). As to the kind of experiment: fluorescence anisotropy; +UVC; Hill n 2.18±0.14; FP: 25 mM HEPES, 10 mM Mg(OAc)2, 25 mM NaOAc, 75 mM KOAc, pH 7.5, 1 nM DNA, TFAM 0-15 nM diluted on ice (read temperature not stated); AFM oligos: on ice, 2 min. Conditions: protein: recombinant; label: 5' 6-FAM on strand 1; blunt.
Data set [14] has as its target T1, TFAM (no MTS). As to the kind of experiment: fluorescence anisotropy; Hill n 5.06±0.09; FP: 25 mM HEPES, 10 mM Mg(OAc)2, 25 mM NaOAc, 75 mM KOAc, pH 7.5, 1 nM DNA, TFAM 0-15 nM diluted on ice (read temperature not stated); AFM oligos: on ice, 2 min. The settings on record: protein: recombinant; label: 5' 6-FAM on strand 1 (FP); blunt.
In data set [15] the target is T1, TFAM (no MTS). The data set is described as follows: fluorescence anisotropy; +UVC; Hill n 4.76±0.11; FP: 25 mM HEPES, 10 mM Mg(OAc)2, 25 mM NaOAc, 75 mM KOAc, pH 7.5, 1 nM DNA, TFAM 0-15 nM diluted on ice (read temperature not stated); AFM oligos: on ice, 2 min. The settings on record: protein: recombinant; label: 5' 6-FAM on strand 1; blunt.
Data set [16] has as its target T1, TFAM (no MTS). The data set is described as follows: fluorescence anisotropy; Hill n 2.40±0.43; FP: 25 mM HEPES, 10 mM Mg(OAc)2, 25 mM NaOAc, 75 mM KOAc, pH 7.5, 1 nM DNA, TFAM 0-15 nM diluted on ice (read temperature not stated); AFM oligos: on ice, 2 min. The settings on record: protein: recombinant; label: 5' 6-FAM on strand 1; blunt.
The target of data set [17] is T1, TFAM (no MTS). The data set is described as follows: fluorescence anisotropy; +UVC; Hill n 2.20±0.13; FP: 25 mM HEPES, 10 mM Mg(OAc)2, 25 mM NaOAc, 75 mM KOAc, pH 7.5, 1 nM DNA, TFAM 0-15 nM diluted on ice (read temperature not stated); AFM oligos: on ice, 2 min. The settings on record: protein: recombinant; label: 5' 6-FAM on strand 1; blunt.
Data set [18] deals with T1, TFAM (no MTS). The data set is described as follows: fluorescence anisotropy; Hill n 2.15±0.24; FP: 25 mM HEPES, 10 mM Mg(OAc)2, 25 mM NaOAc, 75 mM KOAc, pH 7.5, 1 nM DNA, TFAM 0-15 nM diluted on ice (read temperature not stated); AFM oligos: on ice, 2 min. Conditions: protein: recombinant; label: 5' 6-FAM on strand 1; blunt.
The target of data set [19] is T1, TFAM (no MTS). The data set is described as follows: fluorescence anisotropy; +UVC; Hill n 1.81±0.05; FP: 25 mM HEPES, 10 mM Mg(OAc)2, 25 mM NaOAc, 75 mM KOAc, pH 7.5, 1 nM DNA, TFAM 0-15 nM diluted on ice (read temperature not stated); AFM oligos: on ice, 2 min. Conditions: protein: recombinant; label: 5' 6-FAM on strand 1; blunt.

Broadly, the Kd is the equilibrium constant for the complex coming apart.

B1: ND1_353 40mer (dsDNA)
DNA 1: CACAAACATTATTATAATAAACACCCTCACCACTACAATC
DNA 2: GATTGTAGTGGTGAGGGTGTTTATTATAATAATGTTTGTG
As to B1, the Kd in data set [1] was 5.69 ± 0.15 nM.

B2: ND1_353 40mer +UVC (dsDNA)
DNA 1: B1 DNA 1
DNA 2: B1 DNA 2
modifications: UVC 1500 J/m2 photolesions (positions undefined)
As to B2, the dissociation constant Kd in [2] was 7.25 ± 0.39 nM.

B3: ND1_353 (dsDNA)
DNA 1: ATTATTATAATAAACACCCTCACCACTACAATC
DNA 2: GATTGTAGTGGTGAGGGTGTTTATTATAATAAT
Regarding B3, the equilibrium dissociation constant (Kd) in [3] was determined as 7.56 ± 0.34 nM.

B4: ND1_353 +UVC (dsDNA)
DNA 1: B3 DNA 1
DNA 2: B3 DNA 2
modifications: UVC 1500 J/m2 photolesions (positions undefined)
Take B4: the Kd in data set [4] was 7.66 ± 0.88 nM.

B5: ND6_87 (dsDNA)
DNA 1: TTCCTACACTATTAAAGTTTACCACAACCACCA
DNA 2: TGGTGGTTGTGGTAAACTTTAATAGTGTAGGAA
In the case of B5, the Kd in [5] amounted to 5.2 ± 0.32 nM.

B6: ND6_87 +UVC (dsDNA)
DNA 1: B5 DNA 1
DNA 2: B5 DNA 2
modifications: UVC 1500 J/m2 photolesions (positions undefined)
In the case of B6, the Kd in [6] came to 7.63 ± 0.21 nM.

B7: ND2_401 (dsDNA)
DNA 1: CAAATGGGCCATTATCGAAGAATTCACAAAAAA
DNA 2: TTTTTTGTGAATTCTTCGATAATGGCCCATTTG
Regarding B7, in [7], the Kd is 4.36 ± 0.24 nM.

B8: ND2_401 +UVC (dsDNA)
DNA 1: B7 DNA 1
DNA 2: B7 DNA 2
modifications: UVC 1500 J/m2 photolesions (positions undefined)
Regarding B8, the Kd in data set [8] worked out at 6.24 ± 0.15 nM.

B9: ND3_92 (dsDNA)
DNA 1: TTAGTAGCTATTACCTTCTTATTATTTGATCTA
DNA 2: TAGATCAAATAATAAGAAGGTAATAGCTACTAA
As for B9, the Kd in data set [9] came to 4.53 ± 0.13 nM.

B10: ND1_288 (dsDNA)
DNA 1: CTCCACACTAGCAGAGACCAACCGAACCCCCTT
DNA 2: AAGGGGGTTCGGTTGGTCTCTGCTAGTGTGGAG
On to B10, for which, in data set [10], the Kd stood at 3.41 ± 0.03 nM.

B11: ND1_288 +UVC (dsDNA)
DNA 1: B10 DNA 1
DNA 2: B10 DNA 2
modifications: UVC 1500 J/m2 photolesions (positions undefined)
As to B11, the dissociation constant Kd in data set [11] was 6.12 ± 0.22 nM.

B12: COX2_229 (dsDNA)
DNA 1: GCCCCCATTCGTATAATAATTACATCACAAGAC
DNA 2: GTCTTGTGATGTAATTATTATACGAATGGGGGC
As to B12, the Kd in data set [12] was 3.94 ± 0.03 nM.

B13: COX2_229 +UVC (dsDNA)
DNA 1: B12 DNA 1
DNA 2: B12 DNA 2
modifications: UVC 1500 J/m2 photolesions (positions undefined)
Consider B13, for which, in data set [13], the Kd was 4.87 ± 0.35 nM.

B14: ND4_473 (dsDNA)
DNA 1: CGGCGCAGTCATTCTCATAATCGCCCACGGGCT
DNA 2: AGCCCGTGGGCGATTATGAGAATGACTGCGCCG
Regarding B14, the Kd in data set [14] stood at 4.95 ± 0.03 nM.

B15: ND4_473 +UVC (dsDNA)
DNA 1: B14 DNA 1
DNA 2: B14 DNA 2
modifications: UVC 1500 J/m2 photolesions (positions undefined)
In the case of B15, in [15], the Kd was 5.36 ± 0.14 nM.

B16: ND1_450 (dsDNA)
DNA 1: ACTCACCCTAGCATTACTTATATGATATGTCTC
DNA 2: GAGACATATCATATAAGTAATGCTAGGGTGAGT
With B16, in data set [16], the Kd is 4.33 ± 0.17 nM.

B17: ND1_450 +UVC (dsDNA)
DNA 1: B16 DNA 1
DNA 2: B16 DNA 2
modifications: UVC 1500 J/m2 photolesions (positions undefined)
In the case of B17, the Kd in data set [17] came out at 6.36 ± 0.51 nM.

B18: TRNT_10 (dsDNA)
DNA 1: CTTGTAGTATAAACTAATACACCAGTCTTGTAA
DNA 2: TTACAAGACTGGTGTATTAGTTTATACTACAAG
Consider B18, for which the Kd in [18] worked out at 4.24 ± 0.12 nM.

B19: TRNT_10 +UVC (dsDNA)
DNA 1: B18 DNA 1
DNA 2: B18 DNA 2
modifications: UVC 1500 J/m2 photolesions (positions undefined)
Take B19: the Kd in data set [19] turned out to be 7.79 ± 0.8 nM.
